Test results reported in article PMC9079172, “BAG6 prevents the aggregation of neurodegeneration-associated fragments of TDP43” (iScience, 2022).

Target: T1, BAG6, wild type, FLAG-tagged, exogenously overexpressed (pRK5-FLAG-Bag6) (UniProt P46379 1-1132)
T1 construct: BAG6, wild type, from pRK5-FLAG-Bag6 (Liu et al., 2014); In HEK293T cells the anti-BAG6 antibody also precipitates endogenous BAG6; also called wild type BAG6; ^fBAG6; source: HEK293T or BAG6-KO HEK293T, transfected, in lysate; not shown: FLAG, N-terminal, kept
T1 sequence (P46379 whole entry): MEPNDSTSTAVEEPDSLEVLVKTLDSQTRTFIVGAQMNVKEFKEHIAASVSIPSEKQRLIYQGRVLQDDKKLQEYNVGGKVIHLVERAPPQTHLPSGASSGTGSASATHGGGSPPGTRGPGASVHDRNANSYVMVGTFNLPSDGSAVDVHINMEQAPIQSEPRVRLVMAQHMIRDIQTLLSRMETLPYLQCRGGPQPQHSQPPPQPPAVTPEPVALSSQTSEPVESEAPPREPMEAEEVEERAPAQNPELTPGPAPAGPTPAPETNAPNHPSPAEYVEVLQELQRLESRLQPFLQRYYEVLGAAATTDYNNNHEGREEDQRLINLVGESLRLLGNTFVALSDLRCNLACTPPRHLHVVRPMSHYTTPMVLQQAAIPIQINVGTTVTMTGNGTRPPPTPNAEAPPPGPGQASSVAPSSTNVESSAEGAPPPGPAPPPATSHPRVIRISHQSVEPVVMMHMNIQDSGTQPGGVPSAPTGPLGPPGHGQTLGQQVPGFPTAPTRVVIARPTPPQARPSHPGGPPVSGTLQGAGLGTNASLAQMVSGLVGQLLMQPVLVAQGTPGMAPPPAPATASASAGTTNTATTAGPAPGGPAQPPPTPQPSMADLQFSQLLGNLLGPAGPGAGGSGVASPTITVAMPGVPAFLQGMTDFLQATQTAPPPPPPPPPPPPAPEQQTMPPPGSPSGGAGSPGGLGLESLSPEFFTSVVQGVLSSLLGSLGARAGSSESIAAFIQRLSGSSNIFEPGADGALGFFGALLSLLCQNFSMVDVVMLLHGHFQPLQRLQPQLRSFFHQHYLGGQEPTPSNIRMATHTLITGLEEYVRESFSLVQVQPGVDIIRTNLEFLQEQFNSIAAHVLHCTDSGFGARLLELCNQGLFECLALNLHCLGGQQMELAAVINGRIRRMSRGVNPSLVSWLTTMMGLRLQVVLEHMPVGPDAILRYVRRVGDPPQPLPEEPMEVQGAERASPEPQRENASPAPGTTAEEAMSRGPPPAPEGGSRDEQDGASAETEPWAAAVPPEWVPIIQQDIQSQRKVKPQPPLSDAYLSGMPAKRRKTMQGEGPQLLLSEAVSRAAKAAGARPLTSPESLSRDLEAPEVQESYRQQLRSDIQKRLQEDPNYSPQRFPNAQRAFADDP
Test: co-IP; anti-BAG6 IP from soluble fractions of HEK293T cells overexpressing the fragments and BAG6 or BAG6ΔUBL; blots with anti-TDP43, anti-FLAG or anti-Myc; lysis/wash buffer 50 mM HEPES pH 7.5, 10% glycerol, 0.05% NP-40, 150 mM NaCl, 4°C
Details: partners not purified

fold affinity relative to TDP43^247 (densitometry of the co-immunoprecipitate): ~5 fold
B1: TDP43^219 (Val^219-TDP43^f), C-terminal fragment of human TDP43, amino acids 219 - 414, bearing N-terminal Val and a C-terminal FLAG tag (domain or fragment, UniProt Q13148 219-414, looked up)
chain: VVFIPKPFRAFAFVTFADDQIAQSLCGEDLIIKGISVHISNAEPKHNSNRQLERSGRFGGNPGGFGNQGGFGNSRGGGAGLGNNQGSNMGGGMNFGAFSINPAMMAAAQAALQSSWGMMGMLASQQNQSGPSGNNQNQGNMQREPNQAFGSGNNSYSGSNSGAAIGWGSASNAGSGSGFNGGFGSSMDSKSSGWGM
notes: the part up to the last residue of Ub is cut off co-translationally; not shown: FLAG, C-terminal, kept
